The record followed here is PMC10515009, “A regulatory GhBPE-GhPRGL module maintains ray petal length in Gerbera hybrida”.

The target of the data set is T1, GST-N-GhBPE (Gerbera hybrida).
T1 chain: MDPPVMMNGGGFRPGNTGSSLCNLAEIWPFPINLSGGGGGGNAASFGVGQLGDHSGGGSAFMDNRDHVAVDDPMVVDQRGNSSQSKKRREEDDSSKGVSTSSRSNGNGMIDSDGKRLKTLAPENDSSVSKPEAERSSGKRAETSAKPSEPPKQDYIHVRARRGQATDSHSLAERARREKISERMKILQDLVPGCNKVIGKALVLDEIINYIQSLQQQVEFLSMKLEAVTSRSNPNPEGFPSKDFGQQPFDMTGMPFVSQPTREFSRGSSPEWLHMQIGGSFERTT
The experiment in a line: EMSA; LightShift Chemiluminescent EMSA kit; buffer, salt, pH and temperature not stated (as Han et al. 2017). Particulars: protein: recombinant; vector pET32-GST; label: 5' biotin (Methods); blunt.

B1: MUT-probe2 (both JA response elements mutated) (dsDNA)
DNA 1: AACACATAAAAAAATCTGTGGTTTTATTGGTTTGTTATTTATCAGATACATTTTAAATATTTAATCGATAATCAAATTTTTTATTAAACACCCACCCCCA
DNA 2: TGGGGGTGGGTGTTTAATAAAAAATTTGATTATCGATTAAATATTTAAAATGTATCTGATAAATAACAAACCAATAAAACCACAGATTTTTTTATGTGTT
Consider B1, for which the binding result is on record as “no binding”.
